Literature values in article PMC10609526.

Biological target: DmsA Tat signal peptide (Escherichia coli) (UniProt P18775)
UniProt P18775, sequence (P18775 1-45): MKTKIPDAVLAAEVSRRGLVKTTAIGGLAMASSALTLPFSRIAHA

- Kd: 220 nM
Substance: DmsD (from UniProt P69853)
